Earlier results as cited in publication PMC11939847.
pKd: −log10 of the molar value.

Biological target: BRD4 ET (Homo sapiens) (UniProt O60885)
Test: SPR

## LKIRL peptide
  pKd: 6.84
